Measured values: US20080050387A1, “Non-Androgen Dependent Roles for Androgen Receptor and Non-Androgen Related Inhibitors of Androgen Receptor” (priority 2003, published 2008)

Molecular target: T1, VP16-AR containing the residues 37 to 919 (human), P10275
T1 chain: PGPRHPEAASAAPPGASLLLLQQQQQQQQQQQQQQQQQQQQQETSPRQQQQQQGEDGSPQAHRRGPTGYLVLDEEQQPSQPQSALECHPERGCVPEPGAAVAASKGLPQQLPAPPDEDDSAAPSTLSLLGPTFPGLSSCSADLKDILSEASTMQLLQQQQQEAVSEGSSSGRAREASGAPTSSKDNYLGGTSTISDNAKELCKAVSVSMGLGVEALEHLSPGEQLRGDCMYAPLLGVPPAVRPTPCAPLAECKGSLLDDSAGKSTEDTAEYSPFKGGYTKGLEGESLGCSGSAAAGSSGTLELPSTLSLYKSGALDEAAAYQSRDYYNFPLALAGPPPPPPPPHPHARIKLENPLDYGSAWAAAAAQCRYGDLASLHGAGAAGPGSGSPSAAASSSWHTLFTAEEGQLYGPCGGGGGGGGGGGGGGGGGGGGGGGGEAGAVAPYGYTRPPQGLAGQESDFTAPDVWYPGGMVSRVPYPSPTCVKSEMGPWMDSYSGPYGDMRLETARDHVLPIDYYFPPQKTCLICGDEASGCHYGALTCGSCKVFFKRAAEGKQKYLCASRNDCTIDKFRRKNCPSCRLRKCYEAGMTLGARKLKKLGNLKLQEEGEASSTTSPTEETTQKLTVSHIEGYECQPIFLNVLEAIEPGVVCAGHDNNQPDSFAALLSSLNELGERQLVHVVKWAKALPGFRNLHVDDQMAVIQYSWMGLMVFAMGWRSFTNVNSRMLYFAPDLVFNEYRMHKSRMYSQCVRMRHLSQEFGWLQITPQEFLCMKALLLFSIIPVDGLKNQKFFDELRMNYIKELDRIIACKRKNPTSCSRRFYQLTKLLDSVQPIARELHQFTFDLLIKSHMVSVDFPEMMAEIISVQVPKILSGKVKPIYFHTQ
Assay: cell-based or functional assay

B1: D30 peptide (…), LXXLL motif peptide (peptide)
peptide: HPTHSSRLWELLMEATPTM
modifications: not checked
two-hybrid peptide assay (pG4-LUC reporter, PC-3 cells, with against without 10 nM DHT): 350 fold
